The values that follow come from publication PMC10348774.

Series [1] in a line: flow cytometry of membrane ADAM10. The following applies: glycan lost; control: control SK-BR-3.
The nature of series [2]: IB of endogenous pre- and matADAM10. The conditions noted are these: glycan lost; control: untreated / vector SK-BR-3.
Series [3] is described as follows: IB of precursor and mature forms. The conditions noted are these: glycan lost; control: wild type (implied).
Series [4] can be described thus: IB after Eer I or MG132 rescue. The following applies: glycan lost; control: untreated SK-BR-3.
Series [5] in a line: IB and IF with ER marker Calnexin. The conditions noted are these: glycan lost; control: wild type (implied).

B1: ADAM metallopeptidase domain 10 (ADAM10): tunicamycin (protein)
parent chain: MVLLRVLILLLSWAAGMGGQYGNPLNKYIRHYEGLSYNVDSLHQKHQRAKRAVSHEDQFLRLDFHAHGRHFNLRMKRDTSLFSDEFKVETSNKVLDYDTSHIYTGHIYGEEGSFSHGSVIDGRFEGFIQTRGGTFYVEPAERYIKDRTLPFHSVIYHEDDINYPHKYGPQGGCADHSVFERMRKYQMTGVEEVTQIPQEEHAANGPELLRKKRTTSAEKNTCQLYIQTDHLFFKYYGTREAVIAQISSHVKAIDTIYQTTDFSGIRNISFMVKRIRINTTADEKDPTNPFRFPNIGVEKFLELNSEQNHDDYCLAYVFTDRDFDDGVLGLAWVGAPSGSSGGICEKSKLYSDGKKKSLNTGIITVQNYGSHVPPKVSHITFAHEVGHNFGSPHDSGTECTPGESKNLGQKENGNYIMYARATSGDKLNNNKFSLCSIRNISQVLEKKRNNCFVESGQPICGNGMVEQGEECDCGYSDQCKDECCFDANQPEGRKCKLKPGKQCSPSQGPCCTAQCAFKSKSEKCRDDSDCAREGICNGFTALCPASDPKPNFTDCNRHTQVCINGQCAGSICEKYGLEECTCASSDGKDDKELCHVCCMKKMDPSTCASTGSVQWSRHFSGRTITLQPGSPCNDFRGYCDVFMRCRLVDADGPLARLKKAIFSPELYENIAEWIVAHWWAVLLMGIALIMLMAGFIKICSVHTPSSNPKLPPPKPLPGTLKRRRPPQPIQQPQRQRPRESYQMGHMRR
With B1, the localisation_or_trafficking result in series [1] is listed as “decreases”. Further, the expression_or_secretion result in series [2] was “decreases”.

B2: ADAM metallopeptidase domain 10 (ADAM10): N267Q (protein)
parent chain: B1 parent chain
B2: the “other: proteolytic processing” value in series [3] is “no change”.

B3: ADAM metallopeptidase domain 10 (ADAM10): DPAGT1 silencing (protein)
parent chain: B1 parent chain
For B3, in series [1], the localisation_or_trafficking entry is recorded as “decreases”. Further, in series [2], the expression_or_secretion result is “decreases”.

B4: ADAM metallopeptidase domain 10 (ADAM10): DPAGT1 inhibition/knockdown + Eer I or MG132 (protein)
parent chain: B1 parent chain
B4: the “other: proteolytic processing” value in series [4] is “abolishes”.

B5: ADAM metallopeptidase domain 10 (ADAM10): N278Q (protein)
parent chain: B1 parent chain
Consider B5, for which the localisation_or_trafficking result in series [5] was “changes”.
